Here are results for 107 sequences from the supplement of paper PMC9942255.

The data set deals with Bacillus subtilis DB104 (SP-AmyQ fusion secretion). Kind of data set: AmyQ secretion efficiency, weighted average sort bin (1 = best secretion, 10 = worst) (bin number (weighted average, 1-10)); higher = lower secretion efficiency. A digest of the protocol:
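Designed signal peptides were fused to mature AmyQ and expressed from the amyE locus in B. subtilis DB104, and this library was loaded at about 0.3 cells per ~65 nL alginate bead together with fluorescein-starch. After about 13 h of growth at room temperature and nile red staining, occupied beads were split into 10 equally populated bins by green/red fluorescence ratio using large-particle flow cytometry. Amplicons from every bin were Illumina-sequenced. The secretion score is the average bin number weighted by read frequency and normalised to beads per bin, excluding low-abundance sequences.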

Where “and” joins values, the source holds several entries; their conditions need not be identical. Equal entries are not always repeated.

MKRFKKKKSFLSIIVAYPIQTNASPM had an AmyQ secretion efficiency of 5.88.
The sequence MKRFLIGAGVAASGWFIADHQTHSQEM yielded an AmyQ secretion efficiency of 6.73.
In turn, MKRFLIGAGVAAVILDDEEEADHQTHSQEM displayed an AmyQ secretion efficiency of 7.2.
For the sequence MKRFLIGAGVAAVILFSITFSGWFIADHQTHSQEM, the AmyQ secretion efficiency worked out at 5.28.
The sequence MKRFLIGAGVAAVILKRWFIARHQTHSQEM came in with an AmyQ secretion efficiency of 7.28.
In turn, MKRFLIGAGVAAVILRKKKKAKHQTHSQEM showed an AmyQ secretion efficiency of 6.98.
On to MKRFLIGAGVAAVILSGWFIADHQFHSQEM, for which the AmyQ secretion efficiency was found to be 5.93.
In the case of MKRFLIGAGVAAVILSGWFIADHQKHSQEM, the AmyQ secretion efficiency was 5.36.
On to MKRFLIGAGVAAVILSGWFIADHQTHGQEM, for which the AmyQ secretion efficiency was 5.37.
As to MKRFLIGAGVAAVILSGWFIADHQTHKQEM, the AmyQ secretion efficiency was found to be 4.69.
MKRFLIGAGVAAVILSGWFIADHQTHSQEM: the AmyQ secretion efficiency is 7.62 and 6.01 and 6.59.
Under MKRFLIGAGVAAVILSGWFIADHQTHVQEM stands 6.76; under MKRFLIGAGVAAVILSGWTIADHQTHSQEM, 5.66; under MKRFSTAYKQQRQQCSAAVFLIGAPSRALGAEV, 7.51.
With MKRFSTAYLKKRKLCSAAVFLIGAPSRALGAEV, the AmyQ secretion efficiency amounted to 6.51.
Turning to MKRFSTAYLLLGILCSAAVFLIGAPSRALAAEV, the AmyQ secretion efficiency was found to be 2.35.
For MKRFSTAYLLLGILCSAAVFLIGAPSRALCAEV the value was 3.3; for MKRFSTAYLLLGILCSAAVFLIGAPSRALGADD, 3.2.
MKRFSTAYLLLGILCSAAVFLIGAPSRALGAPD showed an AmyQ secretion efficiency of 2.52.
Regarding MKRFSTAYLLLGILCSAAVFLIGAPSRALGAPK, the AmyQ secretion efficiency is 1.81.
Take MKRFSTAYLLLGILCSAAVFLIGAPSRALGAPV: the AmyQ secretion efficiency is 1.61.
Regarding MKRFSTAYLLLGILCSAAVFLIGAPSRALGARR, the AmyQ secretion efficiency was found to be 7.6.
In turn, MKRFSTAYLLLGILCSAAVFLIGAPSRALGDED showed an AmyQ secretion efficiency of 6.23.
MKRFSTAYLLLGILCSAAVFLIGAPSRALGKKK: the AmyQ secretion efficiency turned out to be 7.04.
Sequence MKRFSTAYLLLGILCSAAVFLIGAPSRALNAEV registered an AmyQ secretion efficiency of 5.97.
For MKRFSTAYLLLGILCSAAVFLIGAPSRCLGAEV, the AmyQ secretion efficiency was 3.15.
MKRFSTAYLLLGILCSAAVFLIGAPSRTLGAEV gave an AmyQ secretion efficiency of 3.24.
MKRFSTAYLLLGILCSAAVFLIGAPSSALGAEV had an AmyQ secretion efficiency of 3.5.
MKRFSTAYLLLGILCSAAVFLIKRPSRALGAEV: the AmyQ secretion efficiency is 6.46.
Consider MKRFSTAYLLLGILCSAAVFLILSAGAPSRALGAEV, for which the AmyQ secretion efficiency turned out to be 3.
The sequence MKRFSTAYLLLGILCSAAVFLIPQPGRALGAEV gave an AmyQ secretion efficiency of 2.89.
In the case of MKRFSTAYLLLLGILCSAAVFLIGAPSRALGAEV, the AmyQ secretion efficiency is 3.05.
Sequence MKRFSTAYTTGGILCSAAVFLIGAPSRALGAEV yielded an AmyQ secretion efficiency of 8.46.
MKRFSTLLLGILCSAAVFLIGAPSRALGAEV showed an AmyQ secretion efficiency of 2.96.
MKRILFLLSTLLIGIMLLTFAPSAFAKQD: the AmyQ secretion efficiency worked out at 1.83.
MKRILLSSALSFGMLISAVPALAAGT: the AmyQ secretion efficiency was determined as 2.79.
Take MKRIRILALGAALTIAPLSFASAEEN: the AmyQ secretion efficiency turned out to be 3.38.
For MKRIRIPMKLALGAALTIAPLSFASAEEN, the AmyQ secretion efficiency stood at 4.57.
For MKRIRIPMTLALGAALTIAPLDEDASAEEN the value was 3.3; for MKRIRIPMTLALGAALTIAPLDEEDDDASAEEN, 5.27.
Take MKRIRIPMTLALGAALTIAPLDKASAEEN: the AmyQ secretion efficiency was 3.1.
For MKRIRIPMTLALGAALTIAPLKRKASAEEN the value was 7.5.
MKRIRIPMTLALGAALTIAPLLSFASAEEN registered an AmyQ secretion efficiency of 4.21.
For the sequence MKRIRIPMTLALGAALTIAPLSASAEEN, the AmyQ secretion efficiency was 2.88.
For MKRIRIPMTLALGAALTIAPLSFAFTASAEEN the value was 3.82.
For MKRIRIPMTLALGAALTIAPLSFASAADE the value was 2.12; for MKRIRIPMTLALGAALTIAPLSFASAAKR, 4.18; for MKRIRIPMTLALGAALTIAPLSFASAAPK, 1.85.
For MKRIRIPMTLALGAALTIAPLSFASAASN, the AmyQ secretion efficiency was 1.02.
Regarding MKRIRIPMTLALGAALTIAPLSFASAATD, the AmyQ secretion efficiency is 2.9.
For MKRIRIPMTLALGAALTIAPLSFASAEED the value was 3.29; for MKRIRIPMTLALGAALTIAPLSFASAKKR, 3.26.
MKRIRIPMTLALGAALTIAPLSFASCEEN showed an AmyQ secretion efficiency of 4.65.
MKRIRIPMTLALGAALTIAPLSFASFEEN returned an AmyQ secretion efficiency of 6.34.
In the case of MKRIRIPMTLALGAALTIAPLSFASGEEN, the AmyQ secretion efficiency stood at 3.92.
Sequence MKRIRIPMTLALGAALTIAPLSFASKEEN showed an AmyQ secretion efficiency of 6.64.
For MKRIRIPMTLALGAALTIAPLSFASLEEN the value was 6.43; for MKRIRIPMTLALGAALTIAPLSFASMEEN, 6.12; for MKRIRIPMTLALGAALTIAPLSFASNEEN, 7.9.
With MKRIRIPMTLALGAALTIAPLSFASPEEN, the AmyQ secretion efficiency came to 8.17.
In the case of MKRIRIPMTLALGAALTIAPLSFASQEEN, the AmyQ secretion efficiency is 7.06.
With MKRIRIPMTLALGAALTIAPLSFASREEN, the AmyQ secretion efficiency came to 6.16.
For the sequence MKRIRIPMTLALGAALTIAPLSFASSEEN, the AmyQ secretion efficiency was found to be 4.71.
MKRIRIPMTLALGAALTIAPLSFASTEEN returned an AmyQ secretion efficiency of 8.25.
MKRIRIPMTLALGAALTIAPLSFASVEEN gave an AmyQ secretion efficiency of 6.71.
In the case of MKRIRIPMTLALGAALTIAPLSFASWEEN, the AmyQ secretion efficiency was 6.97.
In turn, MKRIRIPMTLALGAALTIAPLSFASYEEN gave an AmyQ secretion efficiency of 6.51.
MKRIRIPMTLALGAALTIAPLSFDSAEEN: the AmyQ secretion efficiency was found to be 7.3.
In turn, MKRIRIPMTLALGAALTIAPLSFESAEEN gave an AmyQ secretion efficiency of 5.54.
MKRIRIPMTLALGAALTIAPLSFFSAEEN registered an AmyQ secretion efficiency of 6.31.
MKRIRIPMTLALGAALTIAPLSFGSAEEN: the AmyQ secretion efficiency is 4.51.
For the sequence MKRIRIPMTLALGAALTIAPLSFHSAEEN, the AmyQ secretion efficiency is 7.02.
MKRIRIPMTLALGAALTIAPLSFISAEEN returned an AmyQ secretion efficiency of 3.01.
Sequence MKRIRIPMTLALGAALTIAPLSFKSAEEN displayed an AmyQ secretion efficiency of 6.9.
MKRIRIPMTLALGAALTIAPLSFLSAEEN registered an AmyQ secretion efficiency of 4.62.
For MKRIRIPMTLALGAALTIAPLSFNSAEEN, the AmyQ secretion efficiency was 7.4.
With “MKRIRIPMTLALGAALTIAPLSFPATVPGAGGTTASAEEN”, the AmyQ secretion efficiency came out at 4.38.
In turn, MKRIRIPMTLALGAALTIAPLSFPSAEEN showed an AmyQ secretion efficiency of 6.68.
In turn, MKRIRIPMTLALGAALTIAPLSFQSAEEN displayed an AmyQ secretion efficiency of 6.97.
Take MKRIRIPMTLALGAALTIAPLSFRSAEEN: the AmyQ secretion efficiency is 7.87.
Sequence MKRIRIPMTLALGAALTIAPLSFSSAEEN displayed an AmyQ secretion efficiency of 4.73.
MKRIRIPMTLALGAALTIAPLSFTGFGPAGASAEEN: the AmyQ secretion efficiency came out at 3.89.
The sequence MKRIRIPMTLALGAALTIAPLSFTSAEEN came in with an AmyQ secretion efficiency of 3.52.
For MKRIRIPMTLALGAALTIAPLSFVSAEEN, the AmyQ secretion efficiency was 2.58.
Under MKRIRIPMTLALGAALTIAPLSFWSAEEN stands 6.56; under MKRIRIPMTLALGAALTIAPLSFYSAEEN, 5.14; under MKRIRIPMTLALGAALTIAPLTVATASFASAEEN, 4.63.
Sequence MKRIRIPMTLALGAALTIAPLVFASAEEN gave an AmyQ secretion efficiency of 4.55.
The sequence MKRIRIPMTLALGAALTIAPLVLTVFAALSSFASAEEN registered an AmyQ secretion efficiency of 6.39.
Under MKRIRIPMTLALGAALTISFASAEEN stands 6.71; under MKRIRIPMTLALSAALIIALLSFASAEEN, 5.6.
MKRIRIPMTLKKGAALTIAPLSFASAEEN came in with an AmyQ secretion efficiency of 7.82.
Take MKRIRIPMTLKRKRKRTIAPLSFASAEEN: the AmyQ secretion efficiency was 8.12.
Sequence MKRIRIPMTLRKKRALTIAPLSFASAEEN came in with an AmyQ secretion efficiency of 7.44.
For MKRIRIPMTLSTLALGAALTIAPLSFASAEEN the value was 3.35.
MKRIRIPMTYRYQSALTIAPLSFASAEEN had an AmyQ secretion efficiency of 7.35.
In turn, MKRIRIPMTYTGTAALTIAPLSFASAEEN had an AmyQ secretion efficiency of 7.36.
Under MKRITIIITMFIAAAVISLTGTAEAAEK stands 2.84.
MKRITINIITMFIAAAVIEEDEEAEAAEK: the AmyQ secretion efficiency was 5.79.
For the sequence MKRITINIITMFIAAAVIFLVVFTSSGTAEAAEK, the AmyQ secretion efficiency was determined as 2.77.
MKRITINIITMFIAAAVIKRRRRKKAEAAEK: the AmyQ secretion efficiency worked out at 6.55.
For MKRITINIITMFIAAAVISLTGTAEAAPK the value was 2.12; for MKRITINIITMFIAAAVISLTGTAEAASS, 2.16.
MKRITINIITMFIAAAVIVFSLTGTAEAAEK gave an AmyQ secretion efficiency of 2.39.
For MKRITINIKRRKRRAAVISLTGTAEAAEK the value was 7.96; for MKRITINIRRKKIAAAVISLTGTAEAAEK, 6.82.
On to MKRITINITIITMFIAAAVISLTGTAEAAEK, for which the AmyQ secretion efficiency is 2.69.
